From patent US20240392024A1 (SHANGHAI CELGEN BIO PHARMACEUTICAL, published 2024)
Values joined by “and” are separate entries in the source; they are usually repeats but may differ in a detail not shown here. Equal entries are not always repeated.

T1: TNFR2-His (Sino Biological, 10417-H08H, NP_001057.1 Met1-Asp257, with multi-histidine tag expressed on … (human, UniProt P20333 23-257))
T1 construct: range 1-257; Bought protein; also called recombinant human TNFR2 protein; TNFR2-His antigen; not shown: C-terminal multi-histidine tag
T1 sequence (looked up): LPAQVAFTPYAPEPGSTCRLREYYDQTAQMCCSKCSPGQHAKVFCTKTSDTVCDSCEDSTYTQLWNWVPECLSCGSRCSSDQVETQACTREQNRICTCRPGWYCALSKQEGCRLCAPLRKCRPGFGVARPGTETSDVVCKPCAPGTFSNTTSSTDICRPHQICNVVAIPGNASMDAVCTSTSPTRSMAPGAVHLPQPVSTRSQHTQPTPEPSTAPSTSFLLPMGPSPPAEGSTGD

T2: human TNFR2 on the cell membrane (human, UniProt P20333 23-461)
T2 construct: whole, on cells; One molecule for all cell formats; also called TNFR2-CHO cells; CHO-TNFR2
T2 sequence (looked up): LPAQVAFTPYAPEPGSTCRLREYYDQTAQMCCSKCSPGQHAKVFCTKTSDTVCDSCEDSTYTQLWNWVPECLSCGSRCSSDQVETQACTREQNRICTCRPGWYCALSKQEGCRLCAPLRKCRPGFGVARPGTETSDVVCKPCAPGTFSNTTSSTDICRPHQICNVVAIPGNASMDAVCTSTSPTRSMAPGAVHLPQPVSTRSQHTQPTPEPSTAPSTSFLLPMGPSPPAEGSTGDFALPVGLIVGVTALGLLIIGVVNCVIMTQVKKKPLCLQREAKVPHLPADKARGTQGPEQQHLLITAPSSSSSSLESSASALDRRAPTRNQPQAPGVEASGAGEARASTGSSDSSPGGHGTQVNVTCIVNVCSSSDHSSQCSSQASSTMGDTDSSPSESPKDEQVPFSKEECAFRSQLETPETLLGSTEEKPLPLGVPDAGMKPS

T3: recombinant cynomolgus monkey TNFR2 (Cyno. TNFR2) (Sino Biological, 90102-C021) (cynomolgus monkey, UniProt A0A2K5VET2 132-366)
T3 sequence: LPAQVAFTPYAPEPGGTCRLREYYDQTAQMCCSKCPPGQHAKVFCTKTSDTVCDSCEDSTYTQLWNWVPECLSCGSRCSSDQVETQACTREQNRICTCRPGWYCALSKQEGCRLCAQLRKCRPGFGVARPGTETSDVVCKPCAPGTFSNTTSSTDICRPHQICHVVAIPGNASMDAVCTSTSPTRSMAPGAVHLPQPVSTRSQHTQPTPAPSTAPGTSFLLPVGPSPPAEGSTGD

T4: recombinant human TNFR2 antigen (Kangdai, batch number A100114U) (human, UniProt P20333 23-257)
T4 construct: also called hTNFR2; TNFR2-FC (Shanghai Saijin Biopharmaceutical Co., Ltd., Qiangke, catalog number A100114U); not shown: Fc part of the bought TNFR2-FC
T4 sequence (looked up): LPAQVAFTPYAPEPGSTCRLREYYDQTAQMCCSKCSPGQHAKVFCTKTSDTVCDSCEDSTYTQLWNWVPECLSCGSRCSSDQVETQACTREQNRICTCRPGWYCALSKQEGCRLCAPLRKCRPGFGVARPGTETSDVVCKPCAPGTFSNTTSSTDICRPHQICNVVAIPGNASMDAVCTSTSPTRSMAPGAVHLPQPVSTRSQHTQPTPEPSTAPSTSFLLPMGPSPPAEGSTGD


Tests used:
[1] = target: T1, TNFR2-His (Sino Biological, 10417-H08H, …); experiment: ELISA, plate coated with TNFR2-His
Summary of the method: (§1)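 EC50 was obtained from a dilution series in an ELISA format. Blocked plates carried recombinant human TNFR2 with a C-terminal His tag, and serially diluted antibodies were incubated on them. An enzyme-labelled anti-IgG secondary antibody followed. Plates were then developed with TMB and read on a microplate reader.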

[2] = target: T1, TNFR2-His (Sino Biological, 10417-H08H, …); experiment: ELISA, coated TNFR2-His
Summary of the method: as §1

[3] = target: T2, human TNFR2 on the cell membrane; experiment: flow cytometry on CHO-TNFR2 cells
Summary of the method: (§2)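 EC50 values come from flow cytometry of serially diluted antibodies binding CHO cells that stably overexpress human TNFR2. After incubation in 96-deep-well plates, the cells were washed, stained with a fluorescent anti-IgG secondary antibody and read on a Beckman CytoFLEX.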

[4] = target: T2, human TNFR2 on the cell membrane; experiment: flow cytometry, CHO-TNFR2 cells; CHO-TNFR2 cells
Summary of the method: as §2

[5] = target: T1, TNFR2-His (Sino Biological, 10417-H08H, …); experiment: BLI, antibody captured on AHC probe, TNFR2-His in solution
Summary of the method: (§3)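 Kon, koff and Kd values come from kinetic association measurements made by bio-layer interferometry (Octet, Basic Kinetics mode). Antibody-capture sensors carrying antibodies at 50 nM in Q buffer (10 mM PBS pH 7.4, 0.02% Tween 20, 0.2% BSA) were placed in recombinant human TNFR2, diluted 2-fold in the same buffer from a top concentration of 100 nM.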

[6] = target: T3, recombinant cynomolgus monkey TNFR2 …; experiment: ELISA, plate coated with recombinant cynomolgus monkey TNFR2
Method: (§4) After TMB development, the detection was performed using microplate reader: dual wavelength 450 nm/655 nm detection, and results were calculated by OD₄₅₀-OD₆₅₅.
Using the same method as above, the TNFR2 antigens of cynomolgus monkey and mouse (Sino Biological, 90102-C021 and 50128-M08H) were coated separately. The anti-human TNFR2 mouse monoclonal antibodies to be tested were gradient diluted, then added with the anti-mouse Fab segment secondary antibody (Jackson Immuno Research, 515-035-072), and TMB development was performed. ELISA was used to detect the binding of 8 strains of mouse monoclonal antibodies to recombinant mouse TNFR2 (mTNFR2) and cynomolgus monkey TNFR2 (Cyno. TNFR2).

[7] = target: T4, recombinant human TNFR2 antigen …; experiment: ELISA, coated recombinant human TNFR2
Method: as §4

[8] = target: T4, recombinant human TNFR2 antigen …; experiment: ELISA, plate coated with recombinant human TNFR2 antigen
Method: as §4

[9] = target: T1, TNFR2-His (Sino Biological, 10417-H08H, …); experiment: ELISA, plate coated with TNFR2-His (second test)
Summary of the method: as §1

[10] = target: T2, human TNFR2 on the cell membrane; experiment: flow cytometry on CHO-TNFR2 cells; remark: listed apart in the source
Summary of the method: as §2

[11] = target: T1, TNFR2-His (Sino Biological, 10417-H08H, …); experiment: BLI, antibody captured on AHC probe, TNFR2 in solution
Summary of the method: as §3

Row | Binder | EC50 [1] [µg/mL] | EC50 [2] [nM] | EC50 [3] [µg/mL] | EC50 [4] [nM] | Kd [5] [nM] | koff [5] [s⁻¹] | kon [5] [M⁻¹ s⁻¹] | EC50 [6] | EC50 [7] [µg/mL] | EC50 [8] [nM] | EC50 [9] | EC50 [10] | Kd [11] [nM] | koff [11] [s⁻¹] | kon [11] [M⁻¹ s⁻¹]
1 | 11G2huVH2 + huVL2(P07267) (antibody, V domains shown, Humanized 11G2) VH: QVQLVQSGAEVKKPGASVKVSCKASGYTFITYDINWVRQAPGQGLEWIGWIYPRDGNTQFNENFKGRVTMTTDTSTSTAYMELRSLRSDDTAVYYCARGDRDYGYFDVWGQGTTVTVSS VL: DIQMTQSPSSLSASVGDRVTITCRASQDISNYLNWYQQKPGKAPKLLIYFKSKLHSGVPSRFSGSGSGTDFTLTISSLQPEDFATYYCQQGNTLPLTFGGGTKLEIK | 0.0421 | 0.282 | 0.0214 | 0.144 | 7.3 | 0.00205 | 280000 | – | – | – | – | – | – | – | –
2 | 11G2huVH1 + huVL1(P07262) (antibody, V domains shown, Humanized 11G2) VH: QVQLVQSGAEVKKPGASVKLSCKASGYTFITYDINWVRQAPGQGLEWIGWIYPRDGNTQFNENFKGKATMTVDESTSTAYMEVRSLRSDDTAVYYCARGDRDYGYFDVWGQGTTVTVSS VL: DIQMTPSTSSLSASVGDRVTITCRASQDISNYLNWYQQKPGKAVKLLIYFKSKLHSGVPSRFSGSGSGTDFTLTISSLQPEDFATYYCQQGNTLPLTFGGGTKLELK | 0.0141 | 0.095 | 0.0009 | 0.006 | 4.79 | 0.00115 | 239000 | – | – | – | – | – | – | – | –
3 | 11G2huVH2 + huVL1(P07263) (antibody, V domains shown, Humanized 11G2) VH: QVQLVQSGAEVKKPGASVKVSCKASGYTFITYDINWVRQAPGQGLEWIGWIYPRDGNTQFNENFKGRVTMTTDTSTSTAYMELRSLRSDDTAVYYCARGDRDYGYFDVWGQGTTVTVSS VL: DIQMTPSTSSLSASVGDRVTITCRASQDISNYLNWYQQKPGKAVKLLIYFKSKLHSGVPSRFSGSGSGTDFTLTISSLQPEDFATYYCQQGNTLPLTFGGGTKLELK | 0.0502 | 0.336 | 0.0229 | 0.153 | 5.96 | 0.00171 | 287000 | – | – | – | – | – | – | – | –
4 | 11G2huVH3 + huVL1(P07264) (antibody, V domains shown, Humanized 11G2) VH: QVQLVQSGAEVKKPGASVKVSCKASGYTFITYDINWVRQATGQGLEWIGWIYPRDGNTQFNENFQGRVTMTRNTSISTAYMELSSLRSEDTAVYYCARGDRDYGYFDVWGQGTTVTVSS VL: DIQMTPSTSSLSASVGDRVTITCRASQDISNYLNWYQQKPGKAVKLLIYFKSKLHSGVPSRFSGSGSGTDFTLTISSLQPEDFATYYCQQGNTLPLTFGGGTKLELK | 0.049 | 0.328 | 0.0275 | 0.184 | 5.1 | 0.00161 | 316000 | – | – | – | – | – | – | – | –
5 | anti-human TNFR2 mouse monoclonal antibody 18A2 (antibody, V domains shown, also called 18A12) VH: DVQLQESGPGLVKPSQSLSLTCSVTGYSITSGYYWNWIRQFPGNKLEWMGYISYDGSNNYNPSLKKRISITRDTSKNQFFLKLNSVTTEDTATYYCTGGSGTSWGQGTLVTVSA VL: DIVMTQSHKFMSTSVGDRVSITCKASQDVTTGIAWYQQKPGQSPKLLIYSASNRFTGVPDRFTGSGSGTDFTFTISSVQAEDLAVYFCQQHYSTPFTFGSGTKLEIQ | – | – | – | – | – | – | – | > 1 µg/mL and > 6.7 nM | 0.0465 | 0.312 | – | – | – | – | –
6 | 12E12-huVH6 + huVL4(P08940) (antibody, V domains shown, Humanized 12E12) VH: QVQLVQSGAEVKKPGASVKVSCKASGYTITDFYIHWVRQAPGQGLEWIGRVDPEDGNTEYAPNFQDRATMTTDTSTSTAYLELSSLRSEDTAVYYCSTWDGFSYFDYWGQGTTVTVSS VL: EAVVTQSPATLSLSPGERATLSCRSSTGPVTTNNYANWVQQKPGQAFRGLIGGTNDRAPGIPARFSGSGSGTDTTLTISSLQPEDFAVYYCALWYRNHWVFGGGTKLEIK | – | – | – | – | – | – | – | – | – | – | 0.0279 µg/mL and 0.187 nM | 0.011 µg/mL and 0.073 nM | 4.03 | 0.0034 | 844000
7 | 12E12-huVH7 + huVL2(P08938) (antibody, V domains shown, Humanized 12E12) VH: QVQLVQSGAEVKKPGASVKVSCKASGYTITDFYIHWVRQAPGKGLEWMGRVDPEDGNTEYAQKFQGRVTMTTDTSTDTAYMELSSLRSEDTAVYYCSTWDGFSYFDYWGQGTTVTVSS VL: QAVVTQEPSLTVSPGGTVTLTCRSSTGPVTTNNYANWVQQKPGQAFRGLIGGTNDRAPGVPARFSGSLLGGKAALTLSGAQPEDEAEYYCALWYRNHWVFGGGTKLTVL | – | – | – | – | – | – | – | – | – | – | 0.0262 µg/mL and 0.176 nM | 0.0587 µg/mL and 0.394 nM | 1.7 | 0.00183 | 1.08e+06
8 | 12E12-huVH8 + huVL4(P08942) (antibody, V domains shown, Humanized 12E12) VH: EVQLVQSGAEVKKPGATVKISCKVSGYTITDFYIHWVQQAPGKGLEWMGRVDPEDGNTEYAPNFQDRVTITADTSTDTAYMELSSLRSEDTAVYYCSTWDGFSYFDYWGQGTTVTVSS VL: EAVVTQSPATLSLSPGERATLSCRSSTGPVTTNNYANWVQQKPGQAFRGLIGGTNDRAPGIPARFSGSGSGTDTTLTISSLQPEDFAVYYCALWYRNHWVFGGGTKLEIK | – | – | – | – | – | – | – | – | – | – | 0.0353 µg/mL and 0.237 nM | 0.0129 µg/mL and 0.087 nM | 3.25 | 0.00437 | 1.34e+06
9 | 12E12-huVH7 + huVL4(P08941) (antibody, V domains shown, Humanized 12E12) VH: QVQLVQSGAEVKKPGASVKVSCKASGYTITDFYIHWVRQAPGKGLEWMGRVDPEDGNTEYAQKFQGRVTMTTDTSTDTAYMELSSLRSEDTAVYYCSTWDGFSYFDYWGQGTTVTVSS VL: EAVVTQSPATLSLSPGERATLSCRSSTGPVTTNNYANWVQQKPGQAFRGLIGGTNDRAPGIPARFSGSGSGTDTTLTISSLQPEDFAVYYCALWYRNHWVFGGGTKLEIK | – | – | – | – | – | – | – | – | – | – | 0.0273 µg/mL and 0.183 nM | 0.0217 µg/mL and 0.145 nM | 2.8 | 0.0035 | 1.25e+06
